The target of this assay is PYL1-MS2 (MS2 binding protein fused to PYL1 via a glycine-serine linker) (UniProt Q8VZS8). The experiment in a line: cell-based or functional assay.

Results on one substance are retold here after patent publication US20240035031A1.

For the substance “dPspCas13b-ABI1 (catalytically inactive Prevotella sp. Cas13b fused to the abscisic acid-binding protein ABI1 via a glycine-serine linker) (from UniProt P49597 126-423)”, the GFP+ cells by flow cytometry (split GFP trans-splicing reporter) in the presence of 1.5 mM ABA (% of cells GFP+) is above 40.
